Experimental findings from US20230227557A1 (PROMAB BIOTECHNOLOGIES, published 2023) are described below.

This experiment deals with T1, PD-L1 on PD-L1-positive cancer cells and tissues (human, UniProt Q9NZQ7 19-290).
T1 construct: whole, on cells; also called PD-L1 tumor antigen; CD274
Description: flow cytometry on cancer cell lines. On the technique in general: In flow cytometry, cells or beads pass a laser one at a time.

T1 sequence (Q9NZQ7 19-290): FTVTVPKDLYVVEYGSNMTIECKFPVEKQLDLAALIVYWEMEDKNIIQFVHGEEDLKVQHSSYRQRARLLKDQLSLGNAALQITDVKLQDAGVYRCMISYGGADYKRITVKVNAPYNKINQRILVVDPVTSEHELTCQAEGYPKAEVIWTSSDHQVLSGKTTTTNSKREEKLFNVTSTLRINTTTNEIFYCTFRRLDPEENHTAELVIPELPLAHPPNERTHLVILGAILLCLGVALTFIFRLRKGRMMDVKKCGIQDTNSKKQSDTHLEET

B1: mouse monoclonal anti-human PD-L1 antibody (hybridoma clone 7D2A10) (antibody, V domains shown)
VH: QIQLVQSGPELKNPGETVKISCKASGYTFTNYGMNWVKQAPGKGLKWMGWINTHTGEPTYADDFKGRFAFSSETSASSAYLQINNLKNDDMATYFCAKGTHREEIPAWFAYWGQGTLVTVSA
VL: DVLMTQTPLSLPVSLGDQASISCRSSQSIVHSNGNTYLEWYLQKPGQSPELLIYKVSNLFSGVPDRFSGSGSGTDFTLKISRVEAEDLGVYYCFQGSHVPPTFGAGTKLELKR
notes: also called Promab anti-PD-L1; PD-L1 monoclonal antibody
On to B1, for which the binding result is “binds”.
